Experimental data: patent US20230365662A1
Several values for one entry are separate records, joined by “and”; a condition that tells them apart may be missing. Equal values may be shown once.

B1: KB001 parental mouse Fab VH variant K64G (Fab, V domains shown)
VH: EVQLKQSGPGLVAPSQSLSITCTVSGFSLSIYSVHWVRQPPGKGLEWLGMIWGGGSSDYNSALGSRLSISKDNSKSQVFLKMNSLQTDDTAMYYCARNGNFYAMDYWGQGTSVTVSS
VL: QIVLTQSPAIMSASLGERVTMTCTASSSVSSSFLHWYQQKPGSSPQLWIYSTSNLASGVPARFSGSGSGTSYSLTISSMEAEDAATYYCHQYHHSPYIYTFGGGTKLEIK
B2: KB001 parental mouse Fab VH variant K64Q (Fab, V domains shown)
VH: EVQLKQSGPGLVAPSQSLSITCTVSGFSLSIYSVHWVRQPPGKGLEWLGMIWGGGSSDYNSALQSRLSISKDNSKSQVFLKMNSLQTDDTAMYYCARNGNFYAMDYWGQGTSVTVSS
VL: QIVLTQSPAIMSASLGERVTMTCTASSSVSSSFLHWYQQKPGSSPQLWIYSTSNLASGVPARFSGSGSGTSYSLTISSMEAEDAATYYCHQYHHSPYIYTFGGGTKLEIK
B3: KB001 parental mouse Fab VH variant K64D (Fab, V domains shown)
VH: EVQLKQSGPGLVAPSQSLSITCTVSGFSLSIYSVHWVRQPPGKGLEWLGMIWGGGSSDYNSALDSRLSISKDNSKSQVFLKMNSLQTDDTAMYYCARNGNFYAMDYWGQGTSVTVSS
VL: QIVLTQSPAIMSASLGERVTMTCTASSSVSSSFLHWYQQKPGSSPQLWIYSTSNLASGVPARFSGSGSGTSYSLTISSMEAEDAATYYCHQYHHSPYIYTFGGGTKLEIK
B4: KB001 parental mouse Fab VH variant K64L (Fab, V domains shown)
VH: EVQLKQSGPGLVAPSQSLSITCTVSGFSLSIYSVHWVRQPPGKGLEWLGMIWGGGSSDYNSALLSRLSISKDNSKSQVFLKMNSLQTDDTAMYYCARNGNFYAMDYWGQGTSVTVSS
VL: QIVLTQSPAIMSASLGERVTMTCTASSSVSSSFLHWYQQKPGSSPQLWIYSTSNLASGVPARFSGSGSGTSYSLTISSMEAEDAATYYCHQYHHSPYIYTFGGGTKLEIK
B5: KB001 parental mouse Fab VH variant K64M (Fab, V domains shown)
VH: EVQLKQSGPGLVAPSQSLSITCTVSGFSLSIYSVHWVRQPPGKGLEWLGMIWGGGSSDYNSALMSRLSISKDNSKSQVFLKMNSLQTDDTAMYYCARNGNFYAMDYWGQGTSVTVSS
VL: QIVLTQSPAIMSASLGERVTMTCTASSSVSSSFLHWYQQKPGSSPQLWIYSTSNLASGVPARFSGSGSGTSYSLTISSMEAEDAATYYCHQYHHSPYIYTFGGGTKLEIK
B6: KB001 parental mouse Fab VH variant K64E (Fab, V domains shown)
VH: EVQLKQSGPGLVAPSQSLSITCTVSGFSLSIYSVHWVRQPPGKGLEWLGMIWGGGSSDYNSALESRLSISKDNSKSQVFLKMNSLQTDDTAMYYCARNGNFYAMDYWGQGTSVTVSS
VL: QIVLTQSPAIMSASLGERVTMTCTASSSVSSSFLHWYQQKPGSSPQLWIYSTSNLASGVPARFSGSGSGTSYSLTISSMEAEDAATYYCHQYHHSPYIYTFGGGTKLEIK
B7: KB001 parental mouse Fab VH variant S65H (Fab, V domains shown)
VH: EVQLKQSGPGLVAPSQSLSITCTVSGFSLSIYSVHWVRQPPGKGLEWLGMIWGGGSSDYNSALKHRLSISKDNSKSQVFLKMNSLQTDDTAMYYCARNGNFYAMDYWGQGTSVTVSS
VL: QIVLTQSPAIMSASLGERVTMTCTASSSVSSSFLHWYQQKPGSSPQLWIYSTSNLASGVPARFSGSGSGTSYSLTISSMEAEDAATYYCHQYHHSPYIYTFGGGTKLEIK
B8: KB001 parental mouse Fab VH variant S65Y (Fab, V domains shown)
VH: EVQLKQSGPGLVAPSQSLSITCTVSGFSLSIYSVHWVRQPPGKGLEWLGMIWGGGSSDYNSALKYRLSISKDNSKSQVFLKMNSLQTDDTAMYYCARNGNFYAMDYWGQGTSVTVSS
VL: QIVLTQSPAIMSASLGERVTMTCTASSSVSSSFLHWYQQKPGSSPQLWIYSTSNLASGVPARFSGSGSGTSYSLTISSMEAEDAATYYCHQYHHSPYIYTFGGGTKLEIK
B9: KB001 parental mouse Fab VH variant S65P (Fab, V domains shown)
VH: EVQLKQSGPGLVAPSQSLSITCTVSGFSLSIYSVHWVRQPPGKGLEWLGMIWGGGSSDYNSALKPRLSISKDNSKSQVFLKMNSLQTDDTAMYYCARNGNFYAMDYWGQGTSVTVSS
VL: QIVLTQSPAIMSASLGERVTMTCTASSSVSSSFLHWYQQKPGSSPQLWIYSTSNLASGVPARFSGSGSGTSYSLTISSMEAEDAATYYCHQYHHSPYIYTFGGGTKLEIK
B10: KB001 parental mouse Fab VH variant S65R (Fab, V domains shown)
VH: EVQLKQSGPGLVAPSQSLSITCTVSGFSLSIYSVHWVRQPPGKGLEWLGMIWGGGSSDYNSALKRRLSISKDNSKSQVFLKMNSLQTDDTAMYYCARNGNFYAMDYWGQGTSVTVSS
VL: QIVLTQSPAIMSASLGERVTMTCTASSSVSSSFLHWYQQKPGSSPQLWIYSTSNLASGVPARFSGSGSGTSYSLTISSMEAEDAATYYCHQYHHSPYIYTFGGGTKLEIK
B11: KB001 parental mouse Fab VH variant S65F (Fab, V domains shown)
VH: EVQLKQSGPGLVAPSQSLSITCTVSGFSLSIYSVHWVRQPPGKGLEWLGMIWGGGSSDYNSALKFRLSISKDNSKSQVFLKMNSLQTDDTAMYYCARNGNFYAMDYWGQGTSVTVSS
VL: QIVLTQSPAIMSASLGERVTMTCTASSSVSSSFLHWYQQKPGSSPQLWIYSTSNLASGVPARFSGSGSGTSYSLTISSMEAEDAATYYCHQYHHSPYIYTFGGGTKLEIK
B12: KB001 parental mouse Fab VH variant S65L (Fab, V domains shown)
VH: EVQLKQSGPGLVAPSQSLSITCTVSGFSLSIYSVHWVRQPPGKGLEWLGMIWGGGSSDYNSALKLRLSISKDNSKSQVFLKMNSLQTDDTAMYYCARNGNFYAMDYWGQGTSVTVSS
VL: QIVLTQSPAIMSASLGERVTMTCTASSSVSSSFLHWYQQKPGSSPQLWIYSTSNLASGVPARFSGSGSGTSYSLTISSMEAEDAATYYCHQYHHSPYIYTFGGGTKLEIK
B13: KB001 parental mouse Fab VH variant S65G (Fab, V domains shown)
VH: EVQLKQSGPGLVAPSQSLSITCTVSGFSLSIYSVHWVRQPPGKGLEWLGMIWGGGSSDYNSALKGRLSISKDNSKSQVFLKMNSLQTDDTAMYYCARNGNFYAMDYWGQGTSVTVSS
VL: QIVLTQSPAIMSASLGERVTMTCTASSSVSSSFLHWYQQKPGSSPQLWIYSTSNLASGVPARFSGSGSGTSYSLTISSMEAEDAATYYCHQYHHSPYIYTFGGGTKLEIK
B14: KB001 parental mouse Fab VH variant S65T (Fab, V domains shown)
VH: EVQLKQSGPGLVAPSQSLSITCTVSGFSLSIYSVHWVRQPPGKGLEWLGMIWGGGSSDYNSALKTRLSISKDNSKSQVFLKMNSLQTDDTAMYYCARNGNFYAMDYWGQGTSVTVSS
VL: QIVLTQSPAIMSASLGERVTMTCTASSSVSSSFLHWYQQKPGSSPQLWIYSTSNLASGVPARFSGSGSGTSYSLTISSMEAEDAATYYCHQYHHSPYIYTFGGGTKLEIK
B15: KB001 parental mouse Fab VH variant G99F (Fab, V domains shown)
VH: EVQLKQSGPGLVAPSQSLSITCTVSGFSLSIYSVHWVRQPPGKGLEWLGMIWGGGSSDYNSALKSRLSISKDNSKSQVFLKMNSLQTDDTAMYYCARNFNFYAMDYWGQGTSVTVSS
VL: QIVLTQSPAIMSASLGERVTMTCTASSSVSSSFLHWYQQKPGSSPQLWIYSTSNLASGVPARFSGSGSGTSYSLTISSMEAEDAATYYCHQYHHSPYIYTFGGGTKLEIK
B16: KB001 parental mouse Fab VH variant G99S (Fab, V domains shown)
VH: EVQLKQSGPGLVAPSQSLSITCTVSGFSLSIYSVHWVRQPPGKGLEWLGMIWGGGSSDYNSALKSRLSISKDNSKSQVFLKMNSLQTDDTAMYYCARNSNFYAMDYWGQGTSVTVSS
VL: QIVLTQSPAIMSASLGERVTMTCTASSSVSSSFLHWYQQKPGSSPQLWIYSTSNLASGVPARFSGSGSGTSYSLTISSMEAEDAATYYCHQYHHSPYIYTFGGGTKLEIK
B17: KB001 parental mouse Fab VH variant G99N (Fab, V domains shown)
VH: EVQLKQSGPGLVAPSQSLSITCTVSGFSLSIYSVHWVRQPPGKGLEWLGMIWGGGSSDYNSALKSRLSISKDNSKSQVFLKMNSLQTDDTAMYYCARNNNFYAMDYWGQGTSVTVSS
VL: QIVLTQSPAIMSASLGERVTMTCTASSSVSSSFLHWYQQKPGSSPQLWIYSTSNLASGVPARFSGSGSGTSYSLTISSMEAEDAATYYCHQYHHSPYIYTFGGGTKLEIK
B18: KB001 parental mouse Fab VH variant G99A (Fab, V domains shown)
VH: EVQLKQSGPGLVAPSQSLSITCTVSGFSLSIYSVHWVRQPPGKGLEWLGMIWGGGSSDYNSALKSRLSISKDNSKSQVFLKMNSLQTDDTAMYYCARNANFYAMDYWGQGTSVTVSS
VL: QIVLTQSPAIMSASLGERVTMTCTASSSVSSSFLHWYQQKPGSSPQLWIYSTSNLASGVPARFSGSGSGTSYSLTISSMEAEDAATYYCHQYHHSPYIYTFGGGTKLEIK
B19: KB001 parental mouse Fab VH variant G99Y (Fab, V domains shown)
VH: EVQLKQSGPGLVAPSQSLSITCTVSGFSLSIYSVHWVRQPPGKGLEWLGMIWGGGSSDYNSALKSRLSISKDNSKSQVFLKMNSLQTDDTAMYYCARNYNFYAMDYWGQGTSVTVSS
VL: QIVLTQSPAIMSASLGERVTMTCTASSSVSSSFLHWYQQKPGSSPQLWIYSTSNLASGVPARFSGSGSGTSYSLTISSMEAEDAATYYCHQYHHSPYIYTFGGGTKLEIK
B20: KB001 parental mouse Fab VH variant G99C (Fab, V domains shown)
VH: EVQLKQSGPGLVAPSQSLSITCTVSGFSLSIYSVHWVRQPPGKGLEWLGMIWGGGSSDYNSALKSRLSISKDNSKSQVFLKMNSLQTDDTAMYYCARNCNFYAMDYWGQGTSVTVSS
VL: QIVLTQSPAIMSASLGERVTMTCTASSSVSSSFLHWYQQKPGSSPQLWIYSTSNLASGVPARFSGSGSGTSYSLTISSMEAEDAATYYCHQYHHSPYIYTFGGGTKLEIK

target: HRgpA-6H (Porphyromonas gingivalis) (UniProt P28784); experiment: ELISA, Fab FASEBA supernatant on coated HRgpA-6H (0.0625 ug/ml)
Chain of UniProt P28784 (P28784 228-991 limits assumed): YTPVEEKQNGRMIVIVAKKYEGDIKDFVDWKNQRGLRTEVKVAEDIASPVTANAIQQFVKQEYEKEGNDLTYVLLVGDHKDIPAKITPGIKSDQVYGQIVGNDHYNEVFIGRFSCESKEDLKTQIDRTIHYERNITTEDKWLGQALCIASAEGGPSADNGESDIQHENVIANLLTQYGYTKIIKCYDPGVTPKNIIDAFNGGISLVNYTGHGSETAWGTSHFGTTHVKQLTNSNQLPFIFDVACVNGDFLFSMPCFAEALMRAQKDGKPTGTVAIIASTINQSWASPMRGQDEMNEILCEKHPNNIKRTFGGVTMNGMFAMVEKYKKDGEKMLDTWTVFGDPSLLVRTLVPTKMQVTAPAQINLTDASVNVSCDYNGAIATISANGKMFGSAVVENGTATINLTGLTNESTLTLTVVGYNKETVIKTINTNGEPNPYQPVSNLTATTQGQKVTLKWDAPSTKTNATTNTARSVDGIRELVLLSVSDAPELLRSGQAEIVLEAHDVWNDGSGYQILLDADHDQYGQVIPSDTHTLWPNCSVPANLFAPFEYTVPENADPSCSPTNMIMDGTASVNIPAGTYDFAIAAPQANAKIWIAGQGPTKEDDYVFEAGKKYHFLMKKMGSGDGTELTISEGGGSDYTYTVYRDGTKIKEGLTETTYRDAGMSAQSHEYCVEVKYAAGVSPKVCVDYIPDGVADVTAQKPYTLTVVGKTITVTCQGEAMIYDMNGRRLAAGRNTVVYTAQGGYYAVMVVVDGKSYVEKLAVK

Row | Binder | OD450nm | Ratio OD(Variant)/OD(WT)
1 | B1 | 0.811 | 0.981
2 | B2 | 0.789 | 0.954
3 | B3 | 0.781 | 0.944
4 | B4 | 0.664 | 0.803
5 | B5 | 0.784 | 0.948
6 | B6 | 0.789 | 0.954
7 | B7 | 0.823 and 0.767 | 0.995 and 0.927
8 | B8 | 0.724 | 0.875
9 | B9 | 0.814 | 0.984
10 | B10 | 0.794 | 0.96
11 | B11 | 0.74 | 0.895
12 | B12 | 0.728 | 0.88
13 | B13 | 0.825 | 0.998
14 | B14 | 0.759 | 0.918
15 | B15 | 0.771 | 0.967
16 | B16 | 0.769 and 0.739 and 0.77 | 0.965 and 0.927 and 0.966
17 | B17 | 0.639 and 0.698 | 0.802 and 0.876
18 | B18 | 0.74 | 0.928
19 | B19 | 0.769 | 0.965
20 | B20 | 0.776 | 0.974
